Experimental data reported in paper PMC5421625 (2017).

B1: w678 clonotype 5 (TCR)
alpha TRAV38-1*01 TRAJ43*01 CDR3: CAFRVSHDMRF
beta TRBV10-2*01 TRBJ2-3*01 CDR3: CASSSGNPSTDTQYF
B2: w678 clonotype 4 (TCR)
alpha TRAV12-1*01 TRAJ45*01 CDR3: CVVATYSGGGADGLTF
beta TRBV10-2*01 TRBJ2-3*01 CDR3: CASSSGNPSTDTQYF
B3: w678 clonotype 2 (TCR)
alpha TRAV38-1*01 TRAJ43*01 CDR3: CAFRVSHDMRF
beta TRBV19*01 TRBJ2-1*01 CDR3: CASSIIAGSSYNEQFF
B4: w876 clonotype 5 (TCR)
alpha TRAV38-1*01 TRAJ23*01 CDR3: CAYNQGGKLIF
beta TRBV10-2*01 TRBJ2-2*01 CDR3: CASSVLNTGELFF
B5: w830 clonotype 4 (TCR)
alpha TRAV12-1*01 TRAJ43*01 CDR3: CVLNNNDMRF
beta TRBV19*01 TRBJ1-5*01 CDR3: CASSILGASNQPQHF
B6: w830 clonotype 5 (TCR)
alpha TRAV12-1*01 TRAJ43*01 CDR3: CVVNANDMRF
beta TRBV10-3*01 TRBJ2-2*01 CDR3: CAIRARDQNTGELFF

Molecular target: T1, MCPyV (Merkel cell polyomavirus) common T-Ag peptide on HLA-A*02:01 (human)
T1 peptide: KLLEIAPNC
Experiment: multimer staining

Binder	binding result
B1	recognises
B2	recognises
B3	recognises

Molecular target: T2, MCPyV (Merkel cell polyomavirus) common T-Ag peptide on HLA-A*02:01 (human)
T2 peptide: KLLEIAPNC
Experiment: multimer staining

Binder	binding result
B4	recognises
B5	recognises
B2	recognises
B6	recognises
